In general, Kd refers to the constant that tells how readily two partners part at equilibrium.

The results in this text go back to article PMC7733473, “Aberrant interaction of FUS with the U1 snRNA provides a molecular mechanism of FUS induced amyotrophic lateral sclerosis”.

The target of series [1] is FUS-RRM (RRM-RGG2) (UniProt P35637). Kind of series: ITC. The following applies: n = 0.85; K = (1.25 ± 0.08)e5; 13C/15N in RNA-observed NMR; ITC: 10 mM Na phosphate pH 6.8, 50 mM NaCl, 1 mM β-mercaptoethanol, 25 °C; NMR 313 K; SEC: 10 mM Na phosphate pH 6.8, 100 mM NaCl, 2 mM DTT; EMSA: 10 mM HEPES …. In general terms: A gel shift assay detects complexes by their altered migration in electrophoresis.
FUS-RRM (RRM-RGG2) (UniProt P35637), sequence (P35637 260-390): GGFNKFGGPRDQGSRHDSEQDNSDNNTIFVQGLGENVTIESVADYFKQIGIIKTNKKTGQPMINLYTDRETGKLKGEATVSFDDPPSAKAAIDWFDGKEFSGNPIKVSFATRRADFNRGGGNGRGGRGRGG

Series [2] concerns FUS-RBD WT, EMSA construct. Kind of series: EMSA. The following applies: 5 mM Mg2+, yeast tRNA and salmon sperm DNA; value given jointly with ITC; ITC: 10 mM Na phosphate pH 6.8, 50 mM NaCl, 1 mM β-mercaptoethanol, 25 °C; NMR 313 K; SEC: 10 mM Na phosphate pH 6.8, 100 mM NaCl, 2 mM DTT; EMSA: 10 mM HEPES ….
The subject of series [3] is FUS-RBD (RRM-RGG2-ZnF). Put plainly: competition. Particulars: equimolar Sm proteins and U1-70K (1-216) present; ITC: 10 mM Na phosphate pH 6.8, 50 mM NaCl, 1 mM β-mercaptoethanol, 25 °C; NMR 313 K; SEC: 10 mM Na phosphate pH 6.8, 100 mM NaCl, 2 mM DTT; EMSA: 10 mM HEPES …; scale: % reduction of FUS capacity to impair core snRNP assembly.
The subject of series [4] is FUS-RBD (RRM-RGG2-ZnF). Kind of series: ITC. Particulars: n = 0.92; K = (1.37 ± 0.23)e7; ITC: 10 mM Na phosphate pH 6.8, 50 mM NaCl, 1 mM β-mercaptoethanol, 25 °C; NMR 313 K; SEC: 10 mM Na phosphate pH 6.8, 100 mM NaCl, 2 mM DTT; EMSA: 10 mM HEPES ….
In series [5] the target is FUS-RRM (RRM-RGG2) (UniProt P35637 260-390). Kind of series: NMR titration; ITC: 10 mM Na phosphate pH 6.8, 50 mM NaCl, 1 mM β-mercaptoethanol, 25 °C; NMR 313 K; SEC: 10 mM Na phosphate pH 6.8, 100 mM NaCl, 2 mM DTT; EMSA: 10 mM HEPES pH 7.3, 100 mM KCl, 5 mM MgCl2, tRNA and ssDNA 10 µg/ml each, room temperature. The following applies: protein: recombinant.
FUS-RRM (RRM-RGG2) (UniProt P35637 260-390), sequence (P35637 260-390): as above

Take U1 SL3: the dissociation constant Kd in series [1] was determined as 8000 nM.

Consider U1 SL34, for which the equilibrium dissociation constant (Kd) in series [2] and in series [4] was 70 nM throughout. Besides, in series [3], the binding signal was 75.

UAUACUAA (ssRNA) [U6 21-28]: in series [5] (single strand), the binding result is reported as “binds”.

As for GGCUCUGGUUUCUUCGGGAACAACUCUGAGCC (structured_RNA) [U5 IL-1 fragment], in series [5] (hairpin with internal bulge, UUCG loop), the binding result is listed as “binds”.

On to GGACUUGAAAUAUAGUCC (structured_RNA) [U4 3'-ISL fragment], for which the binding result in series [5] (hairpin) is listed as “binds”.
